Patent US20160367515A1, “Improved delivery of poorly water soluble drugs with aphafetoprotein stabilized with metal ions” (Oy Safemed Ltd., priority 2013, published 2016)

B1: Zn-rhAFP: complex of rhAFP with Zn ions, prepared with 4-fold molar excess of ZnCl2 followed by dialysis (protein, UniProt P02771 19-609, looked up)
Alpha-fetoprotein: RTLHRNEYGIASILDSYQCTAEISLADLATIFFAQFVQEATYKEVSKMVKDALTAIEKPTGDEQSSGCLENQLPAFLEELCHEKEILEKYGHSDCCSQSEEGRHNCFLAHKKPTPASIPLFQVPEPVTSCEAYEEDRETFMNKFIYEIARRHPFLYAPTILLWAARYDKIIPSCCKAENAVECFQTKAATVTKELRESSLLNQHACAVMKNFGTRTFQAITVTKLSQKFTKVNFTEIQKLVLDVAHVHEHCCRGDVLDCLQDGEKIMSYICSQQDTLSNKITECCKLTTLERGQCIIHAENDEKPEGLSPNLNRFLGDRDFNQFSSGEKNIFLASFVHEYSRRHPQLAVSVILRVAKGYQELLEKCFQTENPLECQDKGEEELQKYIQESQALAKRSCGLFQKLGEYYLQNAFLVAYTKKAPQLTSSELMAITRKMAATAATCCQLSEDKLLACGEGAADIIIGHLCIRHEMTPVNPGVGQCCTSSYANRRPCFSSLVVDETYVPPAFSDDKFIFHKDLCQAQGVALQTMKQEFLINLVKQKPQITEEQLEAVIADFSGLLEKCCQGQEQEVCFAEEGQKLISKTRAALGV
modifications: zinc ion complex
B2: rhAFP: glycosylated wild-type recombinant human alpha-fetoprotein secreted by yeast Saccharomyces cerevisiae (protein, UniProt P02771 19-609, looked up)
Alpha-fetoprotein: B1 Alpha-fetoprotein
modifications: expressed in yeast
notes: glycosylated wild-type recombinant human alpha-fetoprotein secreted by yeast Saccharomyces cerevisiae
B3: eAFP: fetal serum human AFP isolated from human cord serum (protein, UniProt P02771 19-609, looked up)
Alpha-fetoprotein: B1 Alpha-fetoprotein

System: mammary carcinoma cell line MCF-7
Experiment: MTS cell viability assay, mammary carcinoma MCF-7 cells
Format: cell-based, human
Conditions: Example 3, MCF-7, 48 h, protein without drug, read-out: IC50, tumor suppressive effect of AFP species standalone
Description: Effect of binding of Zn ions to rhAFP and sugar-free rhAFPo species was tested by measuring of their dose-dependent tumor-suppressive effect for mammary carcinoma cell line MCF-7 in vitro, as it was earlier described for natural embryonic eAFP (Dudich et al., Eur. J. Biochem. 1999; 266: 750-761). MCF-7 cells were incubated with various doses of rhAFP (rhAFPo), Zn-rhAFP (Zn-rhAFPo) or with natural embryonic eAFP for 48 h, and thereafter their viability was assessed by the colorimetric MTS assay (FIG. 1A).
Cell viability was assessed by the Promega CellTiter 96 AQueous Non-Radioactive Cell Proliferation MTS assay (Promega, USA) according to manufacturer's instructions. Cells were incubated with various AFP samples for 48 h as described above, followed by incubation with MTS-test reagents and measuring of the light adsorption of the formasan, appeared in the lysed cell supernatants at 492 nm by using VICTOR-1420 multilabel counter (Wallac, Finland). Intact cell cultures incubated without additions were taken as a control. By such a way the quantity of viable cells capable to internalize MTS dye was determined. Results were expressed as the mean optical density (OD)±the standard error of the mean triplicate cultures. The extent of cell viability was calculated as an average OD in experimental wells after addition of testing compounds in relation to untreated control wells, that was taken as 100%
To evaluate the efficacy of preparations rhAFP/Ptx and Zn-rhAFP/Ptx we compared the cytotoxic effect of Ptx alone or that in combination with rhAFP or Zn-rhAFP for taxol-resistant human hepatoma HepG2 cells, human breast carcinoma cells MCF-7, and rat glioma C6 cell lines in vitro. RhAFP or Zn-rhAFP were incubated with various doses of Ptx at 37° C. for 1 h to allow complex formation with molecular ratios rhAFP:Ptx 1:1; 1:3 or 1:5 and thereafter the mixtures were introduced into the cell culture for 48 hrs. Cytotoxicity was measured by MTS assay.
Various doses of rhAFP/Ptx complexes were tested for their effectiveness for inhibition of human mammary carcinoma MCF-7, human hepatoma HepG2, and rat glioma C6 tumor cell growth in vitro. First, we optimized drug concentration and rhAFP amount to the extent that it would not generate an extensive cytotoxic effect alone. Then, the cells were seeded in 96-well plates at a density of 3×10^3/well in 100 μl of medium for 24 hrs to allow adherence. The next day, rhAFP or Zn-rhAFP combined with Ptx at the molecular ratios of 1:1; 1:3 or 1:5 were added into the each well. After 48 h of incubation MTS assays were performed to determine survival rate of the cells. All the experiments were repeated at least three times. The results were expressed as mean±standard error (SE).
The coefficient of drug interaction (CDI) was calculated to analyze the effects of rhAFP and Ptx combinations. CDI was calculated by the equation: CDI=SRAFP/drug[…]/SRAFP×SRdrug, where SRAFP/drug is the average survival rate of combination group, and SRAFP or SRdrug are the average survival rates of the single agent groups. According to our evaluation, CDI values <1, =1 or >1 indicate that the combinations are synergistic, additive or antagonistic respectively.
The values of Zn-rhAFP/Ptx or rhAFP/Ptx complex concentration, which inhibited the cell viability by 50% (IC50) when compared to untreated control, were calculated according to the Hill's equation (sigmoid model of concentration-response curve) from the curves of dependence of the relative percentage of viable cells from AFP concentration expressed as mean values from three independent experiments±SD.
In order to confirm the hypothesis that the combination of Zn-rhAFP and various low water-soluble chemotherapeutic agents would reveal increased anti-tumor efficacy, different cytotoxic compounds were tested in combination with Zn-rhAFP for their cell-killing effect in MCF-7 cells in vitro. […]

IC50 [µM]	Molecule
2.5	B1
3.5	B2
3	B3

Same assay, conditions: Example 6, MCF-7, 48 h, protein without Ptx, read-out: cytostatic activity (IC50) standalone against MCF-7 cells

IC50 [µM]	Molecule
5.2	B1
6.1	B2

Same assay, conditions: MCF7 + Zn-rhAFP 1.4 μM (Zn:rhAFP 4:1) + drug, 48 h

Molecule	Coefficient for drug interaction (CDI)
CC(C)=CCC/C(C)=C/C=C/C(C)=C/C=C/C(C)=C/C=C/C=C(C)/C=C/C=C(C)/C=C/C=C(\C)CCC=C(C)C [Lycopene, lycopene]	0.71
O=c1c(-c2ccc(O)cc2)coc2cc(O)cc(O)c12 [Genistein, genistein]	0.82
COc1cccc2c1C(=O)c1c(O)c3c(c(O)c1C2=O)C[C@@](O)(C(=O)CO)C[C@@H]3O[C@H]1C[C@H](N)[C@H](O)[C@H](C)O1 [Doxorubicin, doxorubicin]	0.66
COc1cc(/C=C/C(=O)CC(=O)/C=C/c2ccc(O)c(OC)c2)ccc1O [Curcumin, curcumin]	0.88
COc1cc([C@@H]2c3cc4c(cc3[C@@H](O[C@@H]3O[C@@H]5CO[C@@H](C)O[C@H]5[C@H](O)[C@H]3O)[C@H]3COC(=O)[C@H]23)OCO4)cc(OC)c1O [Etoposide, etoposide]	0.86
N.N.[Cl][Pt][Cl] [Cisplatin, cisplatin]	0.93
Oc1ccc(C=Cc2cc(O)cc(O)c2)cc1 [Resveratrol, resveratrol]	0.72

System: NF-κB p65
Experiment: Immunofluorescence of activated NF-κB p65 nuclear translocation in MCF-7 cells
Format: cell-based, human
Conditions: MCF-7, 2 h treatment
Description: The cells were incubated with paclitaxel (10 μM) with addition of Zn-rhAFP (3.0 μM) and/or curcumin (3.0 μM) for 2 h and then assessed for localization of p65 by immunocytochemistry. Activated […] (p65) was detected by treatment of the cells with phospho […] p65 rabbit polyclonal antibody (Cell signaling technologies, USA) followed by secondary goat anti-rabbit Ab-Alexa594 red (Molecular Probes, USA). Cells were visualized at magnification ×400 by fluorescent microscope Axioplan; Zeiss (Germany) equipped with corresponding color filter kits.
The relative amount of p65 in the cytosol and nucleus of the cells was assessed by ImageJ software and was taken as 100% in the control (cytosol+nucleus). Total amount of activated p65 in control untreated cells was taken as 100%. The experimental data are represented as percentage of control±SD from three independent calculations in various observation fields.
MCF-7 cells were seeded on the microscopic plates Lab-Tek™ Chamber Slides (Thermo Fisher Scientific-Nunc, Germany) and cultivated at 37° C. at 5% CO2 atmosphere for 48 h to allow cell adaptation to reach 80% confluence. To test effects of chemotherapeutic preparations on the activation and translocation of NF-κB, cells were treated for 2 h with Ptx (10 nM), curcumin (30 μM); Zn-rhAFP (1.4 μM), or their combination Zn-rhAFP/Ptx/Cur, after which they were fixed with 100% ice-cold acetone. Control cells were incubated without additions and their NF-κB content was taken as 100%. Activated NF-κB was detected by treatment of the cells with phospho NF-κB p65 rabbit polyclonal antibody (Cell signaling technologies, USA) followed by the secondary goat anti-rabbit antibodies Ab-Alexa594 (Molecular Probes, USA). Nuclei were visualized by staining with DAPI (Molecular probes, USA). Cells were visualized at magnification ×400 by fluorescent microscope Axioplan (Zeiss, Germany) equipped with corresponding color filter kits. Distribution throughout the cell of the activated p65 was assessed by the ImageJ software and was taken as 100% in the control samples (cytosol+nucleus).

Molecule	effect on activated p65 (RelA) in the cell nucleus
COc1cc(/C=C/C(=O)CC(=O)/C=C/c2ccc(O)c(OC)c2)ccc1O [Curcumin, curcumin]	significant decrease of activated RelA in the cell nucleus
B1	significant decrease of activated RelA in the cell nucleus

System: not listed separately
Experiment: Adiabatic scanning microcalorimetry of heat denaturation
Format: physicochemical
Conditions: protein 2.0 mg/ml in PBS pH 7.4

Molecule	ΔT1/2 (half width of the denaturation transition peak) [°C]
B1	5.9
B2	7.0
B3	5.8

Same assay, conditions: protein 2.0 mg/ml in PBS pH 7.4; Zn/rhAFP 4/1, Ptx/rhAFP 1/1, Cur/rhAFP 1:1; error about ±6%

Molecule	ΔH (denaturation enthalpy) [kcal/mol]
B1	171
B2	166
B3	189

Same assay, conditions: protein 2.0 mg/ml in PBS pH 7.4; error ±0.5° C.

Molecule	Tmax (denaturation transition temperature) [°C]
B1	74.3
B2	71.9
B3	80.2

System: normal CBA mice splenocytes
Experiment: Unspecific toxicity against normal splenocytes, trypan blue staining
Conditions: 48 h, standalone protein
Description: Zn-rhAFP was prepared in a molecular ratio Zn:rhAFP=4:1. Viable cells were visualized by trypan blue staining. The data are expressed as percentage of viable cells in experimental cell cultures relative to untreated control. Mean of three independent experiments is shown.
Viable cells were visualized by trypan blue staining.

Molecule	dose-dependent stimulation of growth of the normal splenocytes
B1	40 % of control
B2	40 % of control
